Earlier results, collected in patent publication US20260070964A1, “IL-12 GENE THERAPY AND ANTI-VEGF COMBINATION FOR TREATING CANCER” (IMUNON, INC., priority 2022, published 2026).

How the values were obtained:
[1] = system: established tumors; settings: animal models
[2] = several experimental trials and an initial human trial
[3] = human clinical trial

Substance: recombinant IL-12: recombinant interleukin-12 protein
- antitumor effects [1]: profound T-cell mediated antitumor effects causing regression of established tumors
- toxicity on systemic administration [2]: dose limiting toxicity
- toxicity on intraperitoneal administration [3]: Dose limiting toxicity was also observed
